This note sets out measurements from patent US20230087600A1 (Bristol-Myers Squibb, published 2023).

The target of this experiment is T1, human IL-10 receptor (IL-10R) on T cells and B cells of human whole blood (human, UniProt Q13651 22-578; Q08334 20-325).
T1 sequence (looked up) 1: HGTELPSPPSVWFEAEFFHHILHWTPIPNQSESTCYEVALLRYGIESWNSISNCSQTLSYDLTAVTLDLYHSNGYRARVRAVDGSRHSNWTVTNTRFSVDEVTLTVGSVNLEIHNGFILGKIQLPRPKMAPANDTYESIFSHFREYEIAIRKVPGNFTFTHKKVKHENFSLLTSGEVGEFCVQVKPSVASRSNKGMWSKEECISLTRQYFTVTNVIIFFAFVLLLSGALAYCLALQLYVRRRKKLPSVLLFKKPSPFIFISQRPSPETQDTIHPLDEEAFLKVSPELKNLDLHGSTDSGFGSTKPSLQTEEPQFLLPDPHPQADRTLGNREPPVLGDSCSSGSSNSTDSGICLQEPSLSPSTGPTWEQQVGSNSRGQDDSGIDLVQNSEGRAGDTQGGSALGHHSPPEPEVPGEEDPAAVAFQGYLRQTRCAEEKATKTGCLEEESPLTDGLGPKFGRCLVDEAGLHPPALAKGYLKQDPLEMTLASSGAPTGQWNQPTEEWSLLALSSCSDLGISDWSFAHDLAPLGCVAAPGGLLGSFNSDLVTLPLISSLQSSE
T1 sequence (looked up) 2: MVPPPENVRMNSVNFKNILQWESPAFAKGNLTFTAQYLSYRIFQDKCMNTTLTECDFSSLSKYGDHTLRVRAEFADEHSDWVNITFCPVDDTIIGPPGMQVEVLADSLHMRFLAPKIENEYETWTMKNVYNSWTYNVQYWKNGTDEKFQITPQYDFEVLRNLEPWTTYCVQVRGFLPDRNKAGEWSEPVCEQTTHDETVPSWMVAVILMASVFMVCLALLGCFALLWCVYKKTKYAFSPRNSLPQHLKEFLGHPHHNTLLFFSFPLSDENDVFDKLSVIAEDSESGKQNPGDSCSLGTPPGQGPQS
As to the kind of experiment: cell-based or functional assay.

B1: wildtype human IL-10 (ligand)
chain: SPGQGTQSENSCTHFPGNLPNMLRDLRDAFSRVKTFFQMKDQLDNLLLKESLLEDFKGYLGCQALSEMIQFYLEEVMPQAENQDPDIKAHVNSLGENLKTLRLRLRRCHRFLPCENKSKAVEQVKNAFNKLQEKGIYKAMSEFDIFINYIEAYMTMKIRN
As for B1, the “STAT3 phosphorylation (pY705), flow cytometry, CD3+ T cells in human whole blood, EC50” value turned out to be 47.7 pM and the “STAT3 phosphorylation (pY705), flow cytometry, CD19+ B cells in human whole blood, EC50” value was found to be 116 pM.

B2: Fc-IL-10 (human IgG1.3f Fc domain - GGGGSSGGGGSGGGGSGGGGS linker - wildtype human IL-10) (Fc fusion)
chain: DKTHTCPPCPAPEAEGAPSVFLFPPKPKDTLMISRTPEVTCVVVDVSHEDPEVKFNWYVDGVEVHNAKTKPREEQYNSTYRVVSVLTVLHQDWLNGKEYKCKVSNKALPAPIEKTISKAKGQPREPQVYTLPPSREEMTKNQVSLTCLVKGFYPSDIAVEWESNGQPENNYKTTPPVLDSDGSFFLYSKLTVDKSRWQQGNVFSCSVMHEALHNHYTQKSLSLSPGGGGGSSGGGGSGGGGSGGGGSSPGQGTQSENSCTHFPGNLPNMLRDLRDAFSRVKTFFQMKDQLDNLLLKESLLEDFKGYLGCQALSEMIQFYLEEVMPQAENQDPDIKAHVNSLGENLKTLRLRLRRCHRFLPCENKSKAVEQVKNAFNKLQEKGIYKAMSEFDIFINYIEAYMTMKIRN
With B2, the “STAT3 phosphorylation (pY705), flow cytometry, CD3+ T cells in human whole blood, EC50” value came to 222 pM and the “STAT3 phosphorylation (pY705), flow cytometry, CD19+ B cells in human whole blood, EC50” value was 352 pM.
